Molecular target: T1, HybC (large subunit of E. coli Hydrogenase-2), processed form of 552 residues (E. coli, UniProt P0ACE0 1-552)
T1 sequence (looked up): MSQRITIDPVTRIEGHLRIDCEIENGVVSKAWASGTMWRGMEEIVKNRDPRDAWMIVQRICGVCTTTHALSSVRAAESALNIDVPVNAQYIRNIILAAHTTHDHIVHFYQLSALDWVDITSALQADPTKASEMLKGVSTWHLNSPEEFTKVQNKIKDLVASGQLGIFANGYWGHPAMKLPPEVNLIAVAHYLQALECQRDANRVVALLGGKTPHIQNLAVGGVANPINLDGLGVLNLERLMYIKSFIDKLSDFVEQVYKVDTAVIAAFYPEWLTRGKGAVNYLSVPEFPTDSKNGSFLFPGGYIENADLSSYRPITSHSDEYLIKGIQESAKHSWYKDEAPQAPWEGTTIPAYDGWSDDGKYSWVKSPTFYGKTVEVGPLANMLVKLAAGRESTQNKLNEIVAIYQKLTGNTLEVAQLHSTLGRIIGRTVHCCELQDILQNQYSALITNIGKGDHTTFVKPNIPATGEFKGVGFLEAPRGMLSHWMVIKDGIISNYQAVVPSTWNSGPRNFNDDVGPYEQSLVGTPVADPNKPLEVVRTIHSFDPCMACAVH
Test: crystal structure

B1: HybO ΔTat ΔTM with C-terminal His-tag (small subunit of E. coli Hydrogenase-2, encoded by plasmid pO^C) (domain or fragment, UniProt P69741 38-330, looked up)
chain: EMAESVTNPQRPPVIWIGAQECTGCTESLLRATHPTVENLVLETISLEYHEVLSAAFGHQVEENKHNALEKYKGQYVLVVDGSIPLKDNGIYCMVAGEPIVDHIRKAAEGAAAIIAIGSCSAWGGVAAAGVNPTGAVSLQEVLPGKTVINIPGCPPNPHNFLATVAHIITYGKPPKLDDKNRPTFAYGRLIHEHCERRPHFDAGRFAKEFGDEGHREGWCLYHLGCKGPETYGNCSTLQFCDVGGVWPVAIGHPCYGCNEEGIGFHKGIHQLANVENQTPRSQKPDVNAKEGG
B1: binds.
